Publication PMC4643883
Where two headings read alike, the source gives them in different places.

What was measured:
[1] = target: Drosophila Telomere Loss / Modigliani (DTL/Moi), D. melanogaster (Drosophila melanogaster) (UniProt B7Z0L8); assay: SEC; combined heparin-sepharose fractions of co-expressed Ver and DTL/Moi; Superdex 200 10/300 GL; 20 mM Tris pH 7.5, 100 mM NaCl
[2] = target: Drosophila Telomere Loss / Modigliani (DTL/Moi), D. melanogaster (Drosophila melanogaster) (UniProt B7Z0L8); assay: as above; remark: listed apart in the source

Chain of UniProt B7Z0L8 (B7Z0L8 whole entry): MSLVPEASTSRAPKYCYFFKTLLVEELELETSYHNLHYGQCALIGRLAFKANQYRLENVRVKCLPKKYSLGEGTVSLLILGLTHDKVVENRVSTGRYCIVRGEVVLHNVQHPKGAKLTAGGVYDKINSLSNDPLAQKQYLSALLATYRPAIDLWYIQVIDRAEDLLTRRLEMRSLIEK

| stoichiometry N [1] | stoichiometry N [2] | Molecule |
| --- | --- | --- |
| 1 |  | D. yakuba Verrocchio (Ver) (natural protein) |
|  | 1 | Verrocchio (Ver), D. melanogaster (natural protein) MDFNQSFEDIESQLDNFVIRKNQQSEKSTGKCGPEVHDNVPLTISQIERATQDPENENVFITDDVHPIHFCTCIIYAFVTGNGTHNESFMKFMIDDGTGSLEASITKKPFNGRVISSLYSEASSLASSEAYKSIAVSMMRLLQVSMEYIDPTRISRGHSLFLRGRPNRFRGKMGLDAFQFFIDSGRSRNMEIGFVDYLTDWQRRHKTMQNTTNK |
